{"source": "patent US20140348865A1", "about": "“[…] ON AN HIV-1 V1V2 SITE-OF-VULNERABILITY” (The United States of America, as represented by the …, priority 2011, published 2014)", "key": {"[1]": {"target": "Env of HIV-1 strain CNE30 (pseudovirus) (HIV-1)"}, "[2]": {"target": "Env of HIV-1 strain 3873 (pseudovirus) (HIV-1)"}, "[3]": {"target": "Env of HIV-1 strain QH209 (pseudovirus) (HIV-1)"}, "[4]": {"target": "Env of HIV-1 strain CNE56 (pseudovirus) (HIV-1)"}, "[5]": {"target": "Env of HIV-1 strain 398 (pseudovirus) (HIV-1)"}, "[6]": {"target": "Env of HIV-1 strain 0439 (pseudovirus) (HIV-1)"}}}
{"substance": "monoclonal antibody PG9", "values": [{"measurement": "neutralization IC50", "setting": "[1]", "value": "> 50", "unit": "µg/mL"}, {"measurement": "neutralization IC50", "setting": "DU422.01", "value": 0.303, "unit": "µg/mL"}, {"measurement": "neutralization IC50", "setting": "ZM146.7", "value": 0.635, "unit": "µg/mL"}, {"measurement": "neutralization IC50", "setting": "DU123.06", "value": 0.091, "unit": "µg/mL"}, {"measurement": "neutralization IC50", "setting": "CH070.1", "value": 0.006, "unit": "µg/mL"}, {"measurement": "neutralization IC50", "setting": "3637.V5.C3", "value": "> 50", "unit": "µg/mL"}, {"measurement": "neutralization IC50", "setting": "6785.V5.C14", "value": "< 0.023", "unit": "µg/mL"}, {"measurement": "neutralization IC50", "setting": "[2]", "value": "> 50", "unit": "µg/mL"}, {"measurement": "neutralization IC50", "setting": "SO18.18", "value": 0.061, "unit": "µg/mL"}, {"measurement": "neutralization IC50", "setting": "CAP210.E8", "value": 0.087, "unit": "µg/mL"}, {"measurement": "neutralization IC50", "setting": "DU156.12", "value": "< 0.023", "unit": "µg/mL"}, {"measurement": "neutralization IC50", "setting": "ZM106.9", "value": 0.639, "unit": "µg/mL"}, {"measurement": "neutralization IC50", "setting": "96ZM651.02", "value": "> 50", "unit": "µg/mL"}, {"measurement": "neutralization IC50", "setting": "CNE40", "value": 1.16, "unit": "µg/mL"}, {"measurement": "neutralization IC50", "setting": "TZA125.17", "value": 0.231, "unit": "µg/mL"}, {"measurement": "neutralization IC50", "setting": "CH181.12", "value": 0.008, "unit": "µg/mL"}, {"measurement": "neutralization IC80", "setting": "3415.v1.c1 (HIV-1)", "value": 0.77, "unit": "µg/mL"}, {"measurement": "neutralization IC80", "setting": "C1080.c3 (HIV-1)", "value": 0.011, "unit": "µg/mL"}, {"measurement": "neutralization IC80", "setting": "Q769.d22 (HIV-1)", "value": 0.033, "unit": "µg/mL"}, {"measurement": "neutralization IC80", "setting": "3589_V1_C4 (HIV-1)", "value": 0.102, "unit": "µg/mL"}, {"measurement": "neutralization IC80", "setting": "TH976.17 (HIV-1)", "value": "> 50", "unit": "µg/mL"}, {"measurement": "neutralization IC80", "setting": "RW020.2 (HIV-1)", "value": 0.622, "unit": "µg/mL"}, {"measurement": "neutralization IC80", "setting": "CNE59 (HIV-1)", "value": 0.465, "unit": "µg/mL"}, {"measurement": "neutralization IC80", "setting": "3301_V1_C24 (HIV-1)", "value": 1.51, "unit": "µg/mL"}, {"measurement": "neutralization IC80", "setting": "CNE3 (HIV-1)", "value": 1.12, "unit": "µg/mL"}, {"measurement": "neutralization IC80", "setting": "6540.v4.c1 (HIV-1)", "value": 0.213, "unit": "µg/mL"}, {"measurement": "neutralization IC80", "setting": "M02138 (HIV-1)", "value": 1.36, "unit": "µg/mL"}, {"measurement": "neutralization IC80", "setting": "Q259.17 (HIV-1)", "value": 0.229, "unit": "µg/mL"}, {"measurement": "neutralization IC80", "setting": "C3347.c11 (HIV-1)", "value": 0.168, "unit": "µg/mL"}, {"measurement": "neutralization IC80", "setting": "BS208.B1 (HIV-1)", "value": 0.098, "unit": "µg/mL"}, {"measurement": "neutralization IC80", "setting": "[3]", "value": "> 50", "unit": "µg/mL"}, {"measurement": "neutralization IC80", "setting": "3468_V1_C12 (HIV-1)", "value": "> 50", "unit": "µg/mL"}, {"measurement": "neutralization IC80", "setting": "6095_V1_C10 (HIV-1)", "value": 2.25, "unit": "µg/mL"}, {"measurement": "neutralization IC80", "setting": "R2184.c4 (HIV-1)", "value": 1.75, "unit": "µg/mL"}, {"measurement": "neutralization IC80", "setting": "C2101.c1 (HIV-1)", "value": 0.289, "unit": "µg/mL"}, {"measurement": "neutralization IC80", "setting": "TH966.8 (HIV-1)", "value": 0.183, "unit": "µg/mL"}, {"measurement": "neutralization IC80", "setting": "[4]", "value": "> 50", "unit": "µg/mL"}, {"measurement": "neutralization IC80", "setting": "MS208.A1 (HIV-1)", "value": 0.589, "unit": "µg/mL"}, {"measurement": "neutralization IC80", "setting": "BB201.B42 (HIV-1)", "value": 0.046, "unit": "µg/mL"}, {"measurement": "neutralization IC80", "setting": "CNE55 (HIV-1)", "value": 1.32, "unit": "µg/mL"}, {"measurement": "neutralization IC80", "setting": "3718.v3.c11 (HIV-1)", "value": 0.202, "unit": "µg/mL"}, {"measurement": "neutralization IC80", "setting": "MB201.A1 (HIV-1)", "value": 0.193, "unit": "µg/mL"}, {"measurement": "neutralization IC80", "setting": "[5]", "value": "> 50", "unit": "µg/mL"}, {"measurement": "neutralization IC80", "setting": "0815_V3_C3 (HIV-1)", "value": "> 50", "unit": "µg/mL"}, {"measurement": "neutralization IC80", "setting": "KER2008.12 (HIV-1)", "value": 0.085, "unit": "µg/mL"}, {"measurement": "neutralization IC80", "setting": "R3265.c6 (HIV-1)", "value": 9.8, "unit": "µg/mL"}, {"measurement": "neutralization IC80", "setting": "MB539.2B7 (HIV-1)", "value": 0.383, "unit": "µg/mL"}, {"measurement": "neutralization IC80", "setting": "[6]", "value": "> 50", "unit": "µg/mL"}, {"measurement": "neutralization IC80", "setting": "C4118.09 (HIV-1)", "value": 0.205, "unit": "µg/mL"}, {"measurement": "neutralization IC80", "setting": "Q461.e2 (HIV-1)", "value": 29.9, "unit": "µg/mL"}, {"measurement": "neutralization IC80", "setting": "Q842.d12 (HIV-1)", "value": 0.021, "unit": "µg/mL"}, {"measurement": "neutralization IC80", "setting": "Q23.17 (HIV-1)", "value": 0.02, "unit": "µg/mL"}, {"measurement": "neutralization IC80", "setting": "UG037.8 (HIV-1)", "value": 0.085, "unit": "µg/mL"}, {"measurement": "neutralization IC80", "setting": "R1166.c1 (HIV-1)", "value": 9.24, "unit": "µg/mL"}, {"measurement": "neutralization IC80", "setting": "620345.c1 (HIV-1)", "value": "> 50", "unit": "µg/mL"}, {"measurement": "neutralization IC80", "setting": "0260.v5.c36 (HIV-1)", "value": 22.8, "unit": "µg/mL"}, {"measurement": "neutralization IC80", "setting": "MI369.A5 (HIV-1)", "value": 0.364, "unit": "µg/mL"}, {"measurement": "neutralization IC80", "setting": "KNH1209.18 (HIV-1)", "value": "> 50", "unit": "µg/mL"}, {"measurement": "neutralization IC80", "setting": "Q168.a2 (HIV-1)", "value": 0.342, "unit": "µg/mL"}, {"measurement": "neutralization IC80", "setting": "KER2018.11 (HIV-1)", "value": 0.004, "unit": "µg/mL"}, {"measurement": "neutralization IC80", "setting": "Q769.h5 (HIV-1)", "value": 0.007, "unit": "µg/mL"}, {"measurement": "neutralization IC80", "setting": "BI369.9A (HIV-1)", "value": 0.151, "unit": "µg/mL"}, {"measurement": "neutralization IC80", "setting": "0330.v4.c3 (HIV-1)", "value": 0.083, "unit": "µg/mL"}, {"measurement": "neutralization IC80", "setting": "6545_V4_C1 (HIV-1)", "value": 0.315, "unit": "µg/mL"}, {"measurement": "neutralization IC80", "setting": "CNE5 (HIV-1)", "value": "< 0.023", "unit": "µg/mL"}]}
